# Laboratory results reported in publication PMC2755957 (The Journal of Biological Chemistry, 2009).
# Substitutions are numbered along the chain they refer to. Names may count otherwise.
# T1: mouse Δ1–24-L-PGDS (lipocalin type prostaglandin D synthase) (Mus musculus, UniProt O09114, S45A/S81A/T67A)
# T1 sequence (O09114 25-189 S45A/T67A/S81A): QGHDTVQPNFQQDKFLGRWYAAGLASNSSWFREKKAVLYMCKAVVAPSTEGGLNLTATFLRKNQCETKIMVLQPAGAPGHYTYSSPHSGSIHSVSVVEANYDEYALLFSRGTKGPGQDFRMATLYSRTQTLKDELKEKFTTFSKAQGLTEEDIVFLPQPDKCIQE
# B1: mouse Δ1–24-L-PGDS (lipocalin type prostaglandin D synthase) (Mus musculus; W54A) (protein)
# chain: T1 sequence (O09114 25-189 S45A/T67A/S81A) with A21S, W30A, A43T, A57S
# B2: mouse Δ1–24-L-PGDS (lipocalin type prostaglandin D synthase) (Mus musculus; H116A) (protein)
# chain: T1 sequence (O09114 25-189 S45A/T67A/S81A) with A21S, A43T, A57S, H92A
# B3: mouse Δ1–24-L-PGDS (lipocalin type prostaglandin D synthase) (Mus musculus; S81A) (protein)
# chain: T1 sequence (O09114 25-189 S45A/T67A/S81A) with A21S, A43T
# B4: mouse Δ1–24-L-PGDS (lipocalin type prostaglandin D synthase) (Mus musculus; S45A/S81A/T67A) (protein)
# chain: T1 sequence (O09114 25-189 S45A/T67A/S81A)
# B5: mouse Δ1–24-L-PGDS (lipocalin type prostaglandin D synthase) (Mus musculus; S45A) (protein)
# chain: T1 sequence (O09114 25-189 S45A/T67A/S81A) with A43T, A57S
# B6: mouse Δ1–24-L-PGDS (lipocalin type prostaglandin D synthase) (Mus musculus; T67A) (protein)
# chain: T1 sequence (O09114 25-189 S45A/T67A/S81A) with A21S, A57S
# B7: mouse Δ1–24-L-PGDS (lipocalin type prostaglandin D synthase) (Mus musculus; H111A) (protein)
# chain: T1 sequence (O09114 25-189 S45A/T67A/S81A) with A21S, A43T, A57S, H87A
# B8: Δ^1–24-L-PGDS + P110A (Mus musculus; P110A) (protein)
# chain: MAALRMLWMGLVLLGLLGFPQTPAQGHDTVQPNFQQDKFLGRWYSAGLASNSSWFREKKAVLYMCKTVVAPSTEGGLNLTSTFLRKNQCETKIMVLQPAGAPGHYTYSSAHSGSIHSVSVVEANYDEYALLFSRGTKGPGQDFRMATLYSRTQTLKDELKEKFTTFSKAQGLTEEDIVFLPQPDKCIQE
# B9: Δ^1–24-L-PGDS + T67A/S81A (Mus musculus; S81A/T67A) (protein)
# chain: B8 chain with T67A, S81A, A110P
# B10: Δ^1–24-L-PGDS + S45A/T67A (Mus musculus; S45A/T67A) (protein)
# chain: B8 chain with S45A, T67A, A110P
# B11: Δ^1–24-L-PGDS + S45A/S81A (Mus musculus; S45A/S81A) (protein)
# chain: B8 chain with S45A, S81A, A110P
# Target: T1, mouse Δ1–24-L-PGDS (lipocalin type prostaglandin D synthase)
# Assay: biochemical
# Settings: not given
row,Molecule,Kd
1,CC1=C(/C=C/C(C)=C/C=C/C(C)=C/C(=O)O)C(C)(C)CCC1 [all-trans-retinoic acid],0.418 ± 0.124 µM

# Substrate: [H][C@]12C[C@]([H])(OO1)[C@H](C/C=C\CCCC(=O)O)[C@H]2/C=C/[C@@H](O)CCCCC
# Assay: purified protein, by the assay type
# Settings: pH 8.0; 25.0 °C
Molecule,Km,Vmax
B1,1.3 ± 0.5 µM,3.6 µmol/min/mg
B2,1.4 ± 0.1 µM,4.4 µmol/min/mg
B3,1.5 ± 0.4 µM,4.7 µmol/min/mg
B4,1.2 ± 0.1 µM,0.5 µmol/min/mg
B5,0.5 ± 0.2 µM,2.3 µmol/min/mg
B6,2.8 ± 0.9 µM,2.8 µmol/min/mg
B7,1.4 ± 0.4 µM,5.1 µmol/min/mg
B8,1.6 ± 0.5 µM,4.8 µmol/min/mg
B9,2.1 ± 0.2 µM,1.3 µmol/min/mg
B10,2.1 ± 0.6 µM,1.6 µmol/min/mg
B11,1.2 ± 0.3 µM,1.5 µmol/min/mg
